The term Kd denotes the constant that tells how readily two partners part at equilibrium. What is called koff is the rate constant with which the complex falls apart. A lower koff goes with a long-lived complex. Usually kon stands for a measure of how fast the partners come together. High values mean fast association, low ones slow association.

The source of these data is patent publication US20190077863A1 (AERPIO PHARMACEUTICALS, published 2019).

The target in the assay is T1, Human VE-PTP (HPTP-β) containing first eight FN3 repeats with C-terminal His6 tag (Human ½ VE-PTP ECD) (human, UniProt P23467 23-820).
T1 construct: Produced in HEK293 cells and purified by the His tag; it was not cut off; also called Human Beta ½ ECD
T1 sequence: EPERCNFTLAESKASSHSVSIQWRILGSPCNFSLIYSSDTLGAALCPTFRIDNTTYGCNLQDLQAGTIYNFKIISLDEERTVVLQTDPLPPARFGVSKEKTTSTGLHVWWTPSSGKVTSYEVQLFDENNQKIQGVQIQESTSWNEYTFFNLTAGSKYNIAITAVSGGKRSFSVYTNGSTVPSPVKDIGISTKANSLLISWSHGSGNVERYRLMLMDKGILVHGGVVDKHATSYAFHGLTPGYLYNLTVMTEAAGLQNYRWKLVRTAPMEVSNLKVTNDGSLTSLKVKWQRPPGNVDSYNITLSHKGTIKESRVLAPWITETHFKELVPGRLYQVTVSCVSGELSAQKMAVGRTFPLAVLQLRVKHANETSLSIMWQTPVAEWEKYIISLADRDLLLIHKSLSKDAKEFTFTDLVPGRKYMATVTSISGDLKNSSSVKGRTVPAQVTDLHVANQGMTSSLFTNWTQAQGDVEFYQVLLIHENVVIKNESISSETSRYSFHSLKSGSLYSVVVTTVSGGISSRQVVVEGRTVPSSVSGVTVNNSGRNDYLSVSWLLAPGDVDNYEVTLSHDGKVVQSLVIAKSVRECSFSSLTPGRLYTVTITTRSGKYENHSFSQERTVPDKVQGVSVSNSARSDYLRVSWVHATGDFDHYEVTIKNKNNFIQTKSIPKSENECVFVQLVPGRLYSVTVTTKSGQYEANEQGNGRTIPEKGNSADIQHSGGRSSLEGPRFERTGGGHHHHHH
Kind of assay: SPR (Biacore 3000), antibody captured on anti-human IgG, antigen as analyte 25-0 nM. How it is done: Samples of each variant were further assessed by Biacore analysis to determine the binding affinity. Antibody binding experiments were performed on Biacore 3000™ at 25° C. Assay buffer: 10 mM HEPES buffer (pH 7.4), 150 mM NaCl, 3 mM EDTA, 0.05% P20 (polyoxyethylenesorbitan). […] Conjugation buffer: 10 mM sodium acetate buffer (pH 5). The flow rate used for capturing the ligand was 5 μL/min. The flow rate for the kinetic analysis was 50 μL/min. Flow cell 1 and […] of the CM5 chip were coated with maximum amounts of goat anti-human IgG. Approximately 150 RU of the test antibody was captured on flow cell 2, 3, and 4 as indicated. The antigen was flowed over the chip. Binding of the antigen to the antibodies was monitored in real time. The KD was determined from the observed kₒₙ and koff values.
A general note: SPR reads the build-up and loss of mass on a sensor chip optically.

Numbering of substitutions follows the chain as printed. In names and notes the source's numbering stands.

B1: humanized R15E6 variant HC2LC3 (antibody, human IgG4 S228P, kappa, V domains shown)
VH: EVQLVESGGGLVQPGGSLRLSCAASGFTFNANAMNWVRQAPGKGLEWVGRIRTKSNNYATYYAGSVKDRFTISRDDSKNSLYLQMNSLKTEDTAVYYCVRDYYGSSAWITYWGQGTLVTVSS
VL: DIQMTQSPFSLSASVGDRVTITCKASQHVGTAVAWYQQKPGKAPKLLIYWASTRHTGVPSRFSGSGSGTDFTLTISSLQPEDFATYFCQQYSSYPFTFGGGTKLEIKR
notes: Human IgG4 (S228P) / kappa, expressed in CHO cells; Signal peptides left out by range; also called VH2-VL3
In turn, B1 came in with a Ka of 6.75e+08 M⁻¹, a Kd of 1.48 nM, a koff of 0.00123 s⁻¹ and a kon of 890000 M⁻¹ s⁻¹.

B2: humanized R15E6 variant HC2LC2 (antibody, human IgG4 S228P, kappa, V domains shown)
VH: B1 VH
VL: DIVMTQSPDSLAVSLGERATINCKASQHVGTAVAWYQQKPGQPPKLLIYWASTRHTGVPDRFSGSGSGTDFTLTISSLQAEDVAVYYCQQYSSYPFTFGQGTKLEIKR
notes: Human IgG4 (S228P) / kappa, expressed in CHO cells; Signal peptides left out by range; also called VH2-VL2
B2 showed a Ka of 1.98e+07 M⁻¹, a Kd of 50.6 nM, a koff of 0.00215 s⁻¹ and a kon of 42500 M⁻¹ s⁻¹.

B3: humanized R15E6 variant HC3LC4 (antibody, human IgG4 S228P, kappa, V domains shown)
VH: B1 VH with G16R, A23T, S80I, L81A
VL: B2 VL with G41E, Q100G, L104V
notes: Human IgG4 (S228P) / kappa, expressed in CHO cells; Signal peptides left out by range; also called VH3-VL4
B3: the Ka came out at 1.23e+08 M⁻¹, the Kd is 8.14 nM, the koff was determined as 0.00109 s⁻¹ and the kon worked out at 134000 M⁻¹ s⁻¹.
